The target in assay [1] is T1, RAP d3 (human, UniProt P30533 234-357).
T1 construct: also called recombinant RAP d3
T1 sequence: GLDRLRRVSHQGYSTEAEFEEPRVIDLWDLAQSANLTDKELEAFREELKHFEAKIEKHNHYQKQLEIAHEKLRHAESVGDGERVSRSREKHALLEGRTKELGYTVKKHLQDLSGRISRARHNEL
Put plainly: solid-phase binding (OD), single-site non-linear regression.

The target in assay [2] is T1, RAP d3. As to the kind of experiment: binding titration on LRP2 CR89, absorbance against nM of ligand.
Assay [3] has as its target T2, recombinant human LRP1 cluster II (R&D Systems, amino acids 786-1165, with C-terminal Fc tag) (human, UniProt Q07954 786-1165).
T2 construct: range 786-1165; Bought from R&D Systems; coated on plates; also called LRP1-C2; not shown: C-terminal Fc tag of the bought protein
T2 sequence (looked up): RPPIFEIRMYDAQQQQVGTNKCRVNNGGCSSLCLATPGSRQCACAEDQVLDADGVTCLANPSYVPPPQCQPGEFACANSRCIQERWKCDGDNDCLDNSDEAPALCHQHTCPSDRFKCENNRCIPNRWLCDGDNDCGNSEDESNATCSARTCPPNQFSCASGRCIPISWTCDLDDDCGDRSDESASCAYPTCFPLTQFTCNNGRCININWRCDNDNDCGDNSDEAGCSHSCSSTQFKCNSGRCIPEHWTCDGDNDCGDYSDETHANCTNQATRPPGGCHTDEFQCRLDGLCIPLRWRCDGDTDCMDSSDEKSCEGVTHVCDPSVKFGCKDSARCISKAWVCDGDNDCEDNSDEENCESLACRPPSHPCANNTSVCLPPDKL
As to the kind of experiment: solid phase competition, EC50 against that of the mRAPc monomer. As for the experimental part:
(§1) Control wells contained no added inhibitor. Wells were washed with TBS supplemented with 5 mM CaCl₂ and 0.05% Tween-20. […] Excess HRP conjugate was removed and wells washed. Color was developed using TMB reagents (BioRad, Hercules, Calif.).

In assay [4] the target is T2, recombinant human LRP1 cluster II (R&D …). The assay is described as above. As for the experimental part:
as §1
This is another data set of the same source.

Assay [5] has the same target. As to the kind of experiment: solid phase competition, inhibition of 2 nM RAP d3 binding to immobilized LRP1-C2. On the procedure:
as §1

The target is the same in assay [6]. As to the kind of experiment: solid phase competition, inhibitor preincubated with immobilized LRP1-C2, then 2 nM RAP d3. As for the experimental part:
as §1

Like-named read-outs stand apart in the source and are kept apart here.

B1: LRP1 CR3-5 (receptor)
chain: not shown
notes: domain: CR3-5; also called LRP1 CR domains
Broadly, the Kd is the equilibrium constant for the complex coming apart. In turn, B1 displayed a Kd with RAP d3 [1] of 16 nM. This counts as double-digit nanomolar.

B2: LRP2 CR89 (receptor)
chain: not shown
notes: domain: CR89
Turning to B2, the binding result with RAP d3 [2] is reported as “no binding (tested: 100 nM)”.

B3: mature RAP (full-length receptor-associated protein) (ligand)
chain: YSREKNQPKPSPKRESGEEFRMEKLNQLWEKAQRLHLPPVRLAELHADLKIQERDELAWKKLKLDGLDEDGEKEARLIRNLNVILAKYGLDGKKDARQVTSNSLSGTQEDGLDDPRLEKLWHKAKTSGKFSGEELDKLWREFLHHKEKVHEYNVLLETLSRTEEIHENVISPSDLSDIKGSVLHSRHTELKEKLRSINQGLDRLRRVSHQGYSTEAEFEEPRVIDLWDLAQSANLTDKELEAFREELKHFEAKIEKHNHYQKQLEIAHEKLRHAESVGDGERVSRSREKHALLEGRTKELGYTVKKHLQDLSGRISRARHNEL
notes: also called full-length RAP
For orientation: EC50 means the concentration giving half of the maximal effect. Turning to B3, the relative to monomer was 36 fold in assay [3] and 40 fold in assay [4]. In addition, the EC50 in assay [5] amounted to 0.8 nM; in assay [6] it was 0.5 nM.

The values above are taken from patent US20120251444A1 (RAPTOR PHARMACEUTICALS, published 2012).
